From patent publication US20220281976A1 (Alector, published 2022) come the findings set out here.

Numbering of substitutions follows the chain as printed.

First the molecules themselves.
T1: mouse CD33 Fc fusion protein (mouse, UniProt Q63994 18-240, limits assumed)
T1 construct: also called mCD33-Fc
T1 sequence: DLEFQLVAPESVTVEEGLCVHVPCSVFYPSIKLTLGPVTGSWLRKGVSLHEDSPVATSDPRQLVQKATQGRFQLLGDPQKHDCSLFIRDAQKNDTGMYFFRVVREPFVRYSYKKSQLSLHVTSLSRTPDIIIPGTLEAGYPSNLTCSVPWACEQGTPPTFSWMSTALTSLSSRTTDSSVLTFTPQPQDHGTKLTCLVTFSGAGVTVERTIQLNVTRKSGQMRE

B1: C-30 (antibody, V domains shown)
VH: QVQLVQSGAEVKKPGASVKVSCKASGYTFTSYYMHWVRQAPGQGLEWMGVINPSGGSTSYAQKFQGRVTMTRDTSTSTVYMELSSLRSEDTAVYYCAREEAVAADLGVDVWGQGTTVTVSS
VL: not shown
B2: C-34 (antibody, V domains shown)
VH: EVQLVESGGGLVQPGGSLRLSCAASGFTFSSYWMSWVRQAPGKGLEWVANINQDGSEKYYVDSVKGRFTISRDNAKNSLYLQMNSLRAEDTAVYYCARDHGATGPDFDLWGRGTLVTVSS
VL: DIQMTQSPSSLSASVGDRVTITCRASQSISSYLNWYQQKPGKAPKLLIYGASSLQSGVPSRFSGSGSGTDFTLTISSLQPEDFATYYCQQQYLTPLTFGGGTKVEIK
notes: human IgG1
B3: C-64 (antibody, V domains shown)
VH: QVQLVQSGAEVKKPGSSVKVSCKASGGTFSSLAISWVRQAPGQGLEWMGGIIPIFGTANYAQKFQGRVTITADESTSTAYMELSSLRSEDTAVYYCARGTFYSDELFDYWGQGTLVTVSS
VL: B2 VL with L11V, S28G, Y32W, N34A, G50A, Q91E, Y92N, L93S, T94Y
notes: human IgG1
B4: C-28 (antibody, V domains shown)
VH: B2 VH with D99E, H100G, G101R, A102R, G104M, P105N, D106A, L109I, R112Q, L115M
VL: B2 VL with Q91G, L93D, T94V, L96I
notes: human IgG1
B5: C-33 (antibody, V domains shown)
VH: EVQLVESGGGLVQPGGSLRLSCAASGFTFSSYWMSWVRQAPGKGLEWVANIKSDGSEKYYVDSVKGRFTISRDNAKNSLYLQMNSLRAEDTAVYYCAREGRPRLGYAAFDIWGQGTMVTVSS
VL: B2 VL with G50A, L93D, T94L, L96I
notes: human IgG1
B6: C-32 (antibody, V domains shown)
VH: EVQLVESGGGLVQPGGSLRLSCAASGFTFSSYWMSWVRQAPGKGLEWVANIKSDGSEKYYVDSVKGRFTISRDNAKNSLYLQMNSLRAEDTAVYYCARGPSEAAAAKDFDLWGRGTLVTVSS
VL: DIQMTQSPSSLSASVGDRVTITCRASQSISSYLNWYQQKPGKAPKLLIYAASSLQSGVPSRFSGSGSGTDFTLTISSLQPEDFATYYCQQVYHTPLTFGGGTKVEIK
notes: human IgG1
B7: C-50 (antibody, V domains shown)
VH: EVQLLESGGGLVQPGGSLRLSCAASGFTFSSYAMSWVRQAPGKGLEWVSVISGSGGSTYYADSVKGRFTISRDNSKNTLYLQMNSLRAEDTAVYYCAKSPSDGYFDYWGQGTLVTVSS
VL: B2 VL with L11V, S28G, Y32W, N34A, G50A, Q91A, Y92F, L93D, T94F, L96I
notes: human IgG1
B8: C-51 (antibody, V domains shown)
VH: QLQLQESGPGLVKPSETLSLTCTVSGGSISSSSYYWGWIRQPPGKGLEWIGSIYYSGSTYYNPSLKSRVTISVDTSKNQFSLKLSSVTAADTAVYYCARGAPHDYGGGVGWFDPWGQGTTVTVSS
VL: DIQMTQSPSSVSASVGDRVTITCRASQGISSWLAWYQQKPGKAPKLLIYAASNLQSGVPSRFSGSGSGTDFTLTISSLQPEDFATYYCQQSRVFPWTFGGGTKVEIK
notes: human IgG1
B9: C-47 (antibody, V domains shown)
VH: QVQLVESGGGVVQPGRSLRLSCAASGFTFSSYGMHWVRQAPGKGLEWVAVISYDGSNKYYADSVKGRFTISRDNSKNTLYLQMNSLRAEDTAVYYCARGPYYSYTDTAWFDPWGQGTLVTVSS
VL: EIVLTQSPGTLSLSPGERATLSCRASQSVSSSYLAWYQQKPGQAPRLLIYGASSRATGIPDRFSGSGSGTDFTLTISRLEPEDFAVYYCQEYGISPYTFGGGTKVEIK
notes: human IgG1

T2 sequence (P20138 18-259 limits assumed): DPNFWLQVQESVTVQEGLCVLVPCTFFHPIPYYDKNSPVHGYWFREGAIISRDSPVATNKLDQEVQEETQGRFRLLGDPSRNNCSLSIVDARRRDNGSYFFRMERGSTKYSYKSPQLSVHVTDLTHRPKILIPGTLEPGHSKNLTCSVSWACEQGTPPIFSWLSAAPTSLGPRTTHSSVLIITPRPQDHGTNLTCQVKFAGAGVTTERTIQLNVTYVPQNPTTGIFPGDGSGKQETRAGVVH
T3 sequence (P20138 18-259 limits assumed): as above
T4 sequence (P20138 18-364): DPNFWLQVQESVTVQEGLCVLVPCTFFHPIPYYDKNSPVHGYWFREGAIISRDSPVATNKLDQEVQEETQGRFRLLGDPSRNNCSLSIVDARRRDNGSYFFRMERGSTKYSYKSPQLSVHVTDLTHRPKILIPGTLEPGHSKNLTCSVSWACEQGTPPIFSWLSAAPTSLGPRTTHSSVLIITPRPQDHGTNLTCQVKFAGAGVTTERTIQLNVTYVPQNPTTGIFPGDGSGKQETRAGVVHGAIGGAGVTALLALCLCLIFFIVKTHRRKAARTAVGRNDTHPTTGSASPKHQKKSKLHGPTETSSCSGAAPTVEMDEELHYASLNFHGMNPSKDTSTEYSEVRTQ

The first assay has as its target T2, human monomeric His tagged CD33 protein (human, UniProt P20138 18-259).
T2 construct: also called hCD33-His
Briefly: ForteBio BLI or MSD-SET, IgG, monomeric antigen.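 Further: BLI: antibodies captured on AHQ sensors, 100 nM antigen association 5 min, dissociation 5 min, 1:1 fit. MSD-SET: antigen fixed at 50 pM, antibody titrated, quadratic fit.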 Background: BLI is a label-free optical method that tracks binding on a fibre tip over time.
Description: (§1) The binding affinity of each anti-CD33 antibody was determined by measuring their KD by ForteBio or MSD-SET. […] Briefly, ForteBio affinity measurements were performed by loading IgGs on-line onto AHQ sensors. Sensors were equilibrated off-line in assay buffer for 30 min and then monitored on-line for 60 seconds for baseline establishment. Sensors with loaded IgGs were exposed to 100 nM antigen for 5 minutes, then transferred to assay buffer for 5 min for off-rate measurement. Kinetics were analyzed using the 1:1 binding model.
(§2) Solution equilibrium titrations (SET) were performed in PBS+0.1% IgG-Free BSA (PBSF) with antigen held constant at 50 pM and incubated with 3-to 5-fold serial dilutions of antibody starting at 10 nM. Antibodies (20 nM in PBS) were coated onto standard bind MSD-ECL plates overnight at 4° C. or at room temperature for 30 min. Plates were then blocked for 30 min with shaking at 700 rpm, followed by three washes with wash buffer (PBSF+0.05% Tween 20). SET samples were applied and incubated on the plates for 150s with shaking at 700 rpm followed by one wash. Antigen captured on a plate was detected with 250 ng/mL sulfotag-labeled streptavidin in PBSF by incubation on the plate for 3 min. The plates were washed three times with wash buffer and then read on the MSD Sector Imager 2400 instrument using 1× Read Buffer T with surfactant. The percent free antigen was plotted as a function of titrated antibody in Prism and fit to a quadratic equation to extract the KD. To improve throughput, liquid handling robots were used throughout MSD-SET experiments, including SET sample preparation.
As to B1, the Kd (usually the equilibrium constant for the complex coming apart) was determined as 4.12 nM.
With B2, the Kd is 4.44 nM.
The same measure, in the same setting: with B3 the figure was 7.1 nM; with B4, 4 nM; with B5, 3.91 nM.
Same read-out and setting: next, B6: 7.82 nM.

For the next assay, the target named is T1, mouse CD33 Fc fusion protein. The assay can be described thus: ForteBio BLI or MSD-SET, IgG, avid.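 Further: Anti-CD33 IgG affinity by BLI, IgG captured on AHQ sensors with antigen in solution and a one-to-one kinetic fit, or by MSD solution equilibrium titration with quadratic fit.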
Description: as §1, §2
Consider B7, for which the dissociation constant (Kd) is 0.445 nM.
Same read-out and setting: with B8 the figure was 2.72 nM; with B3, 25.8 nM.
As to B9, binding was put at a Kd of 1.09 nM.

The next assay has as its target T3, human CD33 Fc fusion protein (human, UniProt P20138 18-259).
T3 construct: also called hCD33-Fc; human CD33/Fc chimera (R&D Systems)
Briefly: ForteBio BLI or MSD-SET, IgG, avid.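 Further: Anti-CD33 IgG affinity by BLI, IgG captured on AHQ sensors with antigen in solution and a one-to-one kinetic fit, or by MSD solution equilibrium titration with quadratic fit.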
Description: as §1, §2
For the molecule B1, the Kd amounted to 0.985 nM.
As for B2, the Kd is 1.21 nM.
The same measure, in the same setting: with B4 the figure was 1.02 nM.
Molecule B5 came in with a Kd of 0.954 nM.
The same measure, in the same setting: with B6 the figure was 1.63 nM.

In a further assay the target is T1, mouse CD33 Fc fusion protein. Briefly: ForteBio BLI or MSD-SET.
For the molecule B1, the binding result was “no binding (tested: 100 nM)”.
Regarding B2, the binding result was “no binding (tested: 100 nM)”.
Still for that read-out and setting: next, B4: “no binding (tested: 100 nM)”.
Still for that read-out and setting: next, B5: “no binding (tested: 100 nM)”; B6: “no binding (tested: 100 nM)”.

For the next assay, the target named is T3, human CD33 Fc fusion protein. The assay can be described thus: ForteBio BLI or MSD-SET.
On to B7, for which the binding result is “no binding (tested: 100 nM)”.
On the same count and under the same terms, next, B8: “no binding (tested: 100 nM)”; B9: “no binding (tested: 100 nM)”.

In a further assay the target is T2, human monomeric His tagged CD33 protein. The assay can be described thus: ForteBio BLI or MSD-SET.
Consider B7, for which the binding result is given as “no binding (tested: 100 nM)”.
The same measure, in the same setting: with B8 the entry was “no binding (tested: 100 nM)”.
B9: the binding result is reported as “no binding (tested: 100 nM)”.

In a further assay the target is T3, human CD33 Fc fusion protein. The assay can be described thus: RBC adhesion to plate-bound CD33-Fc; antibody 0.5 ug/ml.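 Further: Plate-coated CD33-Fc preincubated 1 h with antibody, then red blood cells added for 1 h at room temperature, adherent cells lysed and quantified via peroxidase activity.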
In the case of B1, the “Percent RBC Binding to CD33” value amounted to 14.2%.
Still for that read-out and setting: with B7 the figure was 118%; with B8, 96.6%; with B2, 14.4%.
Take B3: the “Percent RBC Binding to CD33” value was 93.5%.
Same read-out and setting: with B4 the figure was 14%.
Same read-out and setting: with B5 the figure was 9.36%.
Same read-out and setting: with B9 the figure was 112%; with B6, 12.5%.

Another assay concerns the target T4, human CD33 (human, UniProt P20138 18-364).
T4 construct: CD33 on human primary dendritic cells, macrophages, monocytes and T cells and on CHO cells expressing recombinant human CD33; also called Siglec-3; hCD33
The assay can be described thus: flow cytometry, human primary macrophages.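 Further: binding of CD33 antibodies at 10 µg/ml to human primary macrophages, 1 h on ice, detected with PE-labelled secondary antibody by flow cytometry, reported as MFI.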 A general note: In flow cytometry, cells or beads pass a laser one at a time.
Description: (§3) Initial characterization of CD33 antibodies involved determining their ability to bind CD33 expressed on a CHO cell line, on human primary monocytes, human primary macrophages, human primary dendritic cells, and on human primary T cells. Cells were harvested, plated at 10⁶/ml in a 96 well plate, and incubated in 100 ul PBS containing 2% FBS, 2 mM EDTA and 10 ug/ml Mab and Fc blocking reagent for 1 hour in ice. Cells were washed twice and incubated in 100 ul PBS containing 2% FBS, 2 mM EDTA and 5 ug/ml PE-conjugated secondary antibody for 30 minutes on ice. Cells were washed twice in cold PBS and analyze by flow cytometry on a BD FACS Canto. Data analysis and calculation of MFI values was performed with FlowJo (TreeStar) software version 10.0.7.
For the molecule B1, the “Macrophage MFI” value was 1060.
Same read-out and setting: with B7 the figure was 496; with B2, 862; with B3, 1040.
Turning to B4, the “Macrophage MFI” value turned out to be 811.
Still for that read-out and setting: with B5 the figure was 753; with B6, 855.

A further assay has as its target T4, human CD33. The assay can be described thus: flow cytometry, human primary dendritic cells.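 Further: binding of anti-CD33 antibodies (10 ug/ml, 1 h on ice) to human primary dendritic cells, detected with a PE-labelled secondary antibody, reported as flow cytometry MFI.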
As for B1, the “DC MFI” value was found to be 1660.
With B7, the “DC MFI” value turned out to be 307.
On the same count and under the same terms, with B2 the figure was 1440.
B3: the “DC MFI” value is 1300.
For B4, the “DC MFI” value turned out to be 1780.
The same measure, in the same setting: next, B5: 1590; B6: 1460.

The target of a further assay is T4, human CD33. The assay can be described thus: flow cytometry, human primary monocytes.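 Further: binding of anti-CD33 antibodies at 10 ug/ml to human primary monocytes, 1 h on ice, detected by PE-labelled secondary antibody, flow cytometry readout as mean fluorescence intensity.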 Also noted: reference not given here.
As for B1, the “Monocyte MFI” value was 169.
For B7, the “Monocyte MFI” value worked out at 54.
Same read-out and setting: with B2 the figure was 157; with B3, 188.
On the same count and under the same terms, with B4 the figure was 143; with B5, 133.
On the same count and under the same terms, with B6 the figure was 133.

For the next assay, the target named is T4, human CD33. The assay can be described thus: cell-based or functional assay.
As for B1, the “Percent CD33 Surface Expression, DC % CD33” value is 21%; the “Percent CD33 Surface Expression, Macrophage % CD33” value came out at 41.3%; the “Percent CD33 Surface Expression, Monocyte % CD33” value is 43%.
As for B7, the “Percent CD33 Surface Expression, DC % CD33” value was 87% and the “Percent CD33 Surface Expression, Monocyte % CD33” value amounted to 85.3%.
As to B2, the “Percent CD33 Surface Expression, DC % CD33” value is 20.1%; the “Percent CD33 Surface Expression, Macrophage % CD33” value was 38%; the “Percent CD33 Surface Expression, Monocyte % CD33” value was 42.5%.
In the same order, the values of B3 are 31%, 40.5% and 29.5%.
In the case of B4, the “Percent CD33 Surface Expression, DC % CD33” value came out at 14.8%; the “Percent CD33 Surface Expression, Macrophage % CD33” value was 40.2%; the “Percent CD33 Surface Expression, Monocyte % CD33” value is 29.2%.
For B5, in that order: 18.4%, 43.1% and 51.4%.
For B6, in that order: 17.3%, 43.2% and 33.5%.

The target in another assay is T4, human CD33. Briefly: flow cytometry, human primary T cells.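 Further: binding of anti-CD33 antibodies at 10 ug/ml to human primary T cells, 1 h on ice, detected with PE-labelled secondary antibody, read as flow cytometry MFI.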
Description: as §3
With B1, the “T cell MFI” value was determined as 240.
Still for that read-out and setting: next, B7: 112; B2: 216.
Take B3: the “T cell MFI” value turned out to be 188.
Consider B4, for which the “T cell MFI” value was 402.
Take B5: the “T cell MFI” value stood at 228.
Regarding B6, the “T cell MFI” value stood at 248.

In a further assay the target is T3, human CD33 Fc fusion protein. Briefly: RBC adhesion to plate-bound CD33-Fc; antibody 1.0 ug/ml.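 Further: red blood cells adhering to plate-coated CD33-Fc after 1 h antibody pretreatment, then 1 h at room temperature, bound cells read as peroxidase activity after lysis.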
Description: Briefly, 5 ug/ml CD33-Fc was coated overnight at RT in 96 well Immunolon plates, then washed with PBS, blocked for one hour with binding buffer (PBS containing %0.25 BSA 1 mM CaCl₂). CD33 antibodies (0.5 ug/ml or 1.0 ug/ml) or Fabs (25 ug/ml) were bound for one hour at RT with gentle rocking. After removal of unbound antibody, red blood cells were added to each well at a concentration of 3.0×10⁶ cells per ml and incubated at RT for one hour. Unbound RBCs were then carefully washed off 3× with PBS, and water was added to each well for hypotonic lysis of bound RBCs. The plate was transferred to −80° C. for 10 minutes, followed by 37° C. for 15 minutes. Bound RBCs were detected by peroxidase activity, followed by 2N sulfuric acid to stop the reaction.
Consider B1, for which the “Percent RBC Binding to CD33” value worked out at 8.9%.
The same measure, in the same setting: next, B7: 95.3%.
On the same count and under the same terms, next, B8: 129%; B2: 9.86%.
Consider B3, for which the “Percent RBC Binding to CD33” value came out at 90.4%.
As to B4, the “Percent RBC Binding to CD33” value came to 9.65%.
For B5, the “Percent RBC Binding to CD33” value turned out to be 6.32%.
Still for that read-out and setting: next, B9: 142%.
Same read-out and setting: with B6 the figure was 7.86%.
